Test results: article PMC9900518

Target: GST-BRCA1-CT-M1775R (BRCT), human BRCA1 BRCT domain residues 1599-1863 (human) (UniProt P38398)
Experiment: pull-down; GST-tagged protein immobilised on glutathione-Sepharose beads; purified recombinant His-tagged protein; binding buffer 50 mM Tris-HCl pH 7.4, 100 mM NaCl, 0.4% Nonidet P-40, 10 mM MgCl2, 5 mM EDTA, 2 mM DTT; anti-His immunoblot

fold change of binding against GST-BRCA1 BRCT wild type: 3 to 5 fold
Substance: His-GIV-CT (aa 1660-1870) wild type (domain or fragment)
